The record followed here is US5770396.

Assay [1] deals with rat FcεRI (αβγ2) (rat). In words: IgE rosetting assay, cotransfected COS 7 cells; 50 µg/ml rat IgE added 30 minutes before mouse anti-DNP IgE (competitor of mouse anti-DNP IgE).
In assay [2] the target is rat FcεRI (αβγ2) (rat). Description: IgE rosetting assay, RBL cells (native rat receptor).
Assay [3] deals with rat FcεRI (αβγ2) (rat). Description: IgE rosetting assay, COS 7 cells cotransfected with α, β and γ cDNAs (29 transfections).
The target of assay [4] is rat FcεRI α subunit (rat). Description: IgE rosetting assay, COS 7 cells transfected with α cDNA alone (2 transfections); by the filing α does not reach the surface without β and γ.
Assay [5] concerns the target COS 7 cells cotransfected with the rat α and β subunits (rat). Description: IgE rosetting assay, COS 7 cells transfected with α and β cDNAs (2 transfections); by the filing no IgE-binding sites reach the surface.
Assay [6] has as its target rat FcεRI (αβγ2) (rat). Description: IgE rosetting assay on cotransfected COS 7 cells.

Regarding non-specific rat IgE (antibody), the IgE Binding (rosettes/cells counted) with inhibitor (rosettes per 7,542 cells counted) with rat FcεRI (αβγ2) (rat) [1] was 0.

mouse IgE anti-DNP (antibody) returned an IgE Binding (rosettes/cells counted) with rat FcεRI (αβγ2) (rat) [2] of 100%. Further, in the assay with rat FcεRI (αβγ2) (rat) [3], the IgE Binding (rosettes/cells counted) (rosettes per 41,238 cells counted) stood at 920. In assay [4], this substance registered an IgE Binding (rosettes/cells counted) (rosettes per 4,050 cells counted) of 0. The substance further gave an IgE Binding (rosettes/cells counted) (rosettes per 3,504 cells counted) in assay [5] of 0. This substance also showed an expression of IgE binding (% of cells) with rat FcεRI (αβγ2) (rat) [6] of 5%.
